{
  "source": "paper PMC11626941",
  "about": "“FBLN7 mediates vascular smooth muscle cell phenotype switching and vascular remodeling in hypertension” (Theranostics, 2024)",
  "proteins": {"B1": {"name": "Flag-tagged full-length mouse SDC4 (receptor, UniProt O35988 24-198, looked up)", "chain": "ESIRETEVIDPQDLLEGRYFSGALPDDEDAGGSDDFELSGSGDLDDTEEPRPFPEVIEPLVPLDNHIPENAQPGIRVPSEPKELEENEVIPKRAPSDVGDDMSNKVSMSSTAQGSNIFERTEVLAALIVGGVVGILFAVFLILLLVYRMKKKDEGSYDLGKKPIYKKAPTNEFYA", "notes": "Plasmids provided by GenePharma; Seen as monomer, dimer and tetramer bands on non-reducing blots; also called Flag-SDC4; Flag (SDC4); source: HEK293T, transfected (pcDNA 3.1), in lysate; not shown: Flag, C-terminal, kept"}},
  "target": "the molecule itself",
  "test": "immunoblot with non-reducing loading buffer; HEK293T transfected with varying concentrations of SDC4 plasmids; SDS-PAGE, positions of SDC4 tetramer, dimer and monomer",
  "note": "Values joined by “and” are separate entries in the source; they are usually repeats but may differ in a detail not shown here. Equal entries are not always repeated.",
  "data": [
    {"protein": "B1", "values": [
      {"measurement": "stoichiometry N", "result": "2 and 4"}
    ]}
  ]
}
